Test results from patent publication US20120201781A1 (AbbVie / Abbott, published 2012).

B1: hIL-1α/β DVD1-Ig binding protein (bispecific antibody, human IgG1, kappa)
heavy: not shown
light: NIVLTQSPASLAVSLGQRATISCRASESVDSYGNSYMHWYQQKPGQPPKLLIYLASNLESGVPARFSGSGSRTDFTLTIDPVEADDAATYYCQQNNEDPFTFGSGTKLEIKRNIQMTQTTSSLSASLGDRVTISCRASQDISNCLNWYQQKPDGTVKLLIYYTSRLHSGVPSRFSGSGSGTDYSLTISNLEQEDIATYFCQQGKTLPYAFGGGTKLEINRRTVAAPSVFIFPPSDEQLKSGTASVVCLLNNFYPREAKVQWKVDNALQSGNSQESVTEQDSKDSTYSLSSTLTLSKADYEKHKVYACEVTHQGLSSPVTKSFNRGEC
notes: 13F5.G5 variable domains fused directly (no linker) to the N-terminus of 3D12.E3 variable domains, human Cγ1/Cκ
B2: hIL-1α/β DVD2-Ig binding protein (bispecific antibody, human IgG1, kappa)
heavy: not shown
light: NIVLTQSPASLAVSLGQRATISCRASESVDSYGNSYMHWYQQKPGQPPKLLIYLASNLESGVPARFSGSGSRTDFTLTIDPVEADDAATYYCQQNNEDPFTFGSGTKLEIKRADAAPNIQMTQTTSSLSASLGDRVTISCRASQDISNCLNWYQQKPDGTVKLLIYYTSRLHSGVPSRFSGSGSGTDYSLTISNLEQEDIATYFCQQGKTLPYAFGGGTKLEINRTVAAPSVFIFPPSDEQLKSGTASVVCLLNNFYPREAKVQWKVDNALQSGNSQESVTEQDSKDSTYSLSSTLTLSKADYEKHKVYACEVTHQGLSSPVTKSFNRGEC
notes: 13F5.G5 V - linker (heavy AKTTPP, light ADAAP) - 3D12.E3 V, human Cγ1/Cκ
B3: murine monoclonal antibody 3D12.E3 (antibody, V domains shown)
VH: QIQLVQSGPELKKPGETVKISCKASGYTFRNYGMNWVKQAPGKDLKRMAWINTYTGESTYADDFKGRFAFSLETSASTAYLQINNLKNEDTATYFCARGIYYYGSSYAMDYWGQGTSVTVSS
VL: NIQMTQTTSSLSASLGDRVTISCRASQDISNCLNWYQQKPDGTVKLLIYYTSRLHSGVPSRFSGSGSGTDYSLTISNLEQEDIATYFCQQGKTLPYAFGGGTKLEINR
notes: Murine hybridoma mAb, anti-hIL-1α
B4: murine monoclonal antibody 13F5.G5 (antibody, V domains shown)
VH: QVQLQQSGAELVRPGSSVKISCKASGYAFSSYWMNWVKQRPGQGLEWIGQIYPGDGDTNYNGKFKGKATLTADKSSSTSYMQLSGLTSEDSAMYFCVRFPTGNDYYAMDYWGQGTSVTVSS
VL: NIVLTQSPASLAVSLGQRATISCRASESVDSYGNSYMHWYQQKPGQPPKLLIYLASNLESGVPARFSGSGSRTDFTLTIDPVEADDAATYYCQQNNEDPFTFGSGTKLEIKR
notes: Murine hybridoma mAb, anti-hIL-1β

Key:
recombinant human IL-1α [1] = molecular target: T1, recombinant human IL-1α (human, UniProt P01583 113-271); experiment: SPR (Biacore)
T1 construct: Purified recombinant protein bought from R&D Systems; also called hIL-1α; rhIL-1α
T1 sequence: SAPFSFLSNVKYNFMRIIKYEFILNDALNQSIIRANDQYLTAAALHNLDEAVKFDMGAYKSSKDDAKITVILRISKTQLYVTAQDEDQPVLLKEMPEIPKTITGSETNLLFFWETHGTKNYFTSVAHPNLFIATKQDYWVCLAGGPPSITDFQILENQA
Protocol: (§1) The equilibrium dissociation constant (M) of the reaction between DVD-Ig molecule and rhIL1α/β was then calculated from the kinetic rate constants by the following formula: KD=koff/kon. Aliquots of rhIL1α/β samples were also simultaneously injected over a blank reference and reaction CM surface to record and subtract any nonspecific binding background to eliminate the majority of the refractive index change and injection noise. Surfaces were regenerated with two subsequent […] injections of 10 mM Glycine (pH 1.5) at a flow rate of […]. The anti-Fc antibody immobilized surfaces were completely regenerated and retained their full capture capacity over twelve cycles. The apparent stoichiometry of the captured DVD-Ig-rhIL1α/β complex was calculated under saturating binding conditions (steady-state equilibrium) using the following formula: […]
(§2) The affinity of the two DVD-Ig binding proteins to hIL-1 as compared to the affinity of chimeric antibodies to hIL-1 was similar as indicated by the evaluation of the stoichiometry to IL-1. Both chimeric antibodies, being bivalent monospecific, bound to IL-1α and IL-1β on Biacore with a stoichiometry of 1.6 and 1.7, respectively. This is common for an IgG due to inter-molecular interference when antibodies are immobilized densely on the Biacore sense chip resulting in stoichiometry being in the range from 1.5 to 2.0.

recombinant human IL-1α [2] = molecular target: T1, recombinant human IL-1α; experiment: cell-based or functional assay
recombinant human IL-1α [3] = molecular target: T1, recombinant human IL-1α; experiment: cell-based or functional assay; remark: listed apart in the source
recombinant human IL-1β [4] = molecular target: T2, recombinant human IL-1β (human, UniProt P01584 117-269); experiment: cell-based or functional assay
recombinant human IL-1α [5] = molecular target: T1, recombinant human IL-1α; experiment: SPR (Biacore), hIL-1α as 1st antigen
Protocol: (§3) In addition, tetravalent dual-specific antigen binding of DVD-Ig binding protein was also analyzed by Biacore (Table 14). DVD-Ig binding protein was first captured via a goat anti-human Fc antibody on the Biacore sensor chip, and the first antigen was injected and a binding signal observed. As the DVD-Ig binding protein was saturated by the first antigen, the second antigen was then injected and the second signal observed. This was done either by first injecting IL-1β then IL-1α or by first injecting IL-1α followed by IL-1β for DVD2-Ig binding protein. In either sequence, a dual-binding activity was detected. Similar results were obtained for DVD1-Ig binding protein. Thus, each DVD-Ig binding protein was able to bind both antigens simultaneously as a dual-specific tetravalent molecule. […] Upon the injection of the second antigen, while DVD-Ig binding protein was already occupied by the first antigen, the stoichiometry of both DVD-Igs binding protein to the second antigen (i.e., hIL-1α or hIL-1β was between 1.0 and 1.3. Thus, DVD-Ig binding protein was able to bind two IL-1α and two IL-β molecules. DVD-Ig binding protein was first captured via a goat anti-human Fc antibody on the Biacore sensor chip, and the first antigen was injected and a binding signal observed, followed by the injection of the second antigen.

recombinant human IL-1β [6] = molecular target: T2, recombinant human IL-1β; experiment: SPR (Biacore), hIL-1β as 1st antigen
Protocol: as §3

recombinant human IL-1α [7] = molecular target: T1, recombinant human IL-1α; experiment: SPR (Biacore 3000), saturating binding
Protocol: as §1, with “The association and dissociation rate constants, kon (M-1s-1) and koff (s-1) were determined under a continuous flow rate of 25 ml/minute. […] The equilibrium” for “The equilibrium”
as §2

recombinant human IL-1β [8] = molecular target: T2, recombinant human IL-1β; experiment: SPR (Biacore 3000), saturating binding
Protocol: as §1, with “The association and dissociation rate constants, kon (M-1s-1) and koff (s-1) were determined under a continuous flow rate of 25 ml/minute. […] The equilibrium” for “The equilibrium”
as §2

recombinant human IL-1α [9] = molecular target: T1, recombinant human IL-1α; experiment: SPR (Biacore), hIL-1α as 2nd antigen after hIL-1β
Protocol: as §3

recombinant human IL-1β [10] = molecular target: T2, recombinant human IL-1β; experiment: SPR (Biacore), hIL-1β as 2nd antigen after hIL-1α
Protocol: as §3

recombinant human IL-1α [11] = molecular target: T1, recombinant human IL-1α; experiment: SPR (Biacore 3000), binder captured via goat anti-human IgG Fc
Protocol: (§4) Approximately, 5000 RU of goat anti-human IgG Fcγ fragment specific polyclonal antibody (Pierce Biotechnology Inc, Rockford, Ill.) diluted in 10 mM sodium acetate (pH 4.5) was directly immobilized across a CM5 research grade biosensor chip using a standard amine coupling kit according to manufacturer's instructions and procedures at […]. Unreacted moieties on the biosensor surface were blocked with ethanolamine. Modified carboxymethyl dextran surface in flowcell 2 and 4 was used as a reaction surface. Unmodified carboxymethyl dextran without goat anti-human IgG in flow cell 1 and 3 was used as the reference surface. For kinetic analysis, rate equations derived from the 1:1 Langmuir binding model were fitted simultaneously to association and dissociation phases of all ten injections (using global fit analysis) using the Bioevaluation 4.0.1 software. Purified DVD-Ig samples were diluted in HEPES-buffered saline for capture across goat anti-human IgG Fc specific reaction surfaces and injected over reaction matrices at a flow rate of […]. The association and dissociation rate constants, kon (M-1s-1) and koff (s-1) were determined under a continuous flow rate of 25 ml/minute. […] The equilibrium dissociation constant (M) of the reaction between DVD-Ig molecule and rhIL1α/β was then calculated from the kinetic rate constants by the following formula: KD=koff/kon. Aliquots of rhIL1α/β samples were also simultaneously injected over a blank reference and reaction CM surface to record and subtract any nonspecific binding background to eliminate the majority of the refractive index change and injection noise. Surfaces were regenerated with two subsequent […] injections of 10 mM Glycine (pH 1.5) at a flow rate of […]. The anti-Fc antibody immobilized surfaces were completely regenerated and retained their full capture capacity over twelve cycles. The apparent stoichiometry of the captured DVD-Ig-rhIL1α/β complex was calculated under saturating binding conditions (steady-state equilibrium) using the following formula: […]

recombinant human IL-1β [12] = molecular target: T2, recombinant human IL-1β; experiment: as above
Protocol: as §4

recombinant human IL-1β [13] = molecular target: T2, recombinant human IL-1β; experiment: SPR (Biacore)
Protocol: as §1, §2

recombinant human IL-1β [14] = molecular target: T2, recombinant human IL-1β; experiment: cell-based or functional assay; remark: listed apart in the source
recombinant human IL-1α [15] = molecular target: T1, recombinant human IL-1α; experiment: SPR (Biacore); remark: listed apart in the source
recombinant human IL-1α [16] = molecular target: T1, recombinant human IL-1α; experiment: cell-based or functional assay; remark: listed apart in the source
recombinant human IL-1α [17] = molecular target: T1, recombinant human IL-1α; experiment: SPR (Biacore), saturating binding
recombinant human IL-1α [18] = molecular target: T1, recombinant human IL-1α; experiment: SPR (Biacore), mAb captured via goat anti-mouse IgG
recombinant human IL-1β [19] = molecular target: T2, recombinant human IL-1β; experiment: SPR (Biacore); remark: listed apart in the source
recombinant human IL-1β [20] = molecular target: T2, recombinant human IL-1β; experiment: cell-based or functional assay; remark: listed apart in the source
recombinant human IL-1β [21] = molecular target: T2, recombinant human IL-1β; experiment: SPR (Biacore), saturating binding
recombinant human IL-1β [22] = molecular target: T2, recombinant human IL-1β; experiment: SPR (Biacore), mAb captured via goat anti-mouse IgG

| Binder | fold lower affinity than the chimeric 3D12.E3 antibody (recombinant human IL-1α [1]) [fold] | neutralizing activity in MRC-5 bioassay, fold less than the chimeric antibodies (recombinant human IL-1α [2]) [fold] | Potency (IC50) M, MRC-5 bioassay (recombinant human IL-1α [3]) [nM] | Potency (IC50) M, MRC-5 bioassay (recombinant human IL-1β [4]) [nM] | Stoichiometry hIL-1α:DVD-Ig (recombinant human IL-1α [5]) | Stoichiometry hIL-1β:DVD-Ig (recombinant human IL-1β [6]) | Stoichiometry (recombinant human IL-1α [7]) | Stoichiometry (recombinant human IL-1β [8]) | Stoichiometry hIL-1α:DVD-Ig (recombinant human IL-1α [9]) | Stoichiometry hIL-1β:DVD-Ig (recombinant human IL-1β [10]) | Kd (recombinant human IL-1α [11]) [nM] | koff (recombinant human IL-1α [11]) [s⁻¹] | kon (recombinant human IL-1α [11]) [M⁻¹ s⁻¹] | Kd (recombinant human IL-1β [12]) [nM] | koff (recombinant human IL-1β [12]) [s⁻¹] | kon (recombinant human IL-1β [12]) [M⁻¹ s⁻¹] | also measured |
| --- | --- | --- | --- | --- | --- | --- | --- | --- | --- | --- | --- | --- | --- | --- | --- | --- | --- |
| B1 | 2 to 3 | 3 | 2.3 | 3.1 | 2.3 | 1.5 | 1.8 | 1.5 | 1.1 | 1 | 2.83 | 0.000105 | 37000 | 2.6 | 0.00159 | 609000 |  |
| B2 | 3 | 3 | 2.9 | 1.6 | 1.8 | 1.6 | 2 | 1.8 | 1.2 | 1.3 | 3.42 | 0.000252 | 73500 | 0.798 | 0.00095 | 1.19e+06 | fold higher affinity than DVD1-Ig binding protein (recombinant human IL-1β [13]): 3 fold; neutralizing activity in MRC-5 bioassay, fold higher than DVD1-Ig (recombinant human IL-1β [14]): 3 fold |
| B3 |  |  | 0.67 |  |  |  |  |  |  |  |  |  |  |  |  |  | Kd (recombinant human IL-1α [15]): 1.11 nM; koff (recombinant human IL-1α [15]): 0.000713 s⁻¹; kon (recombinant human IL-1α [15]): 643000 M⁻¹ s⁻¹; IC50 (M), MRC-5 bioassay (inhibition of IL-8 production) (recombinant human IL-1α [16]): 6.7e-10 M; Stoichiometry (recombinant human IL-1α [17]): 2; Kd (recombinant human IL-1α [18]): 1.11 nM |
| B4 |  |  |  | 0.6 |  |  |  |  |  |  |  |  |  |  |  |  | Kd (recombinant human IL-1β [19]): 0.291 nM; koff (recombinant human IL-1β [19]): 0.000621 s⁻¹; kon (recombinant human IL-1β [19]): 2.13e+06 M⁻¹ s⁻¹; IC50 (M), MRC-5 bioassay (inhibition of IL-8 production) (recombinant human IL-1β [20]): 6e-10 M; Stoichiometry (recombinant human IL-1β [21]): 1.8; Kd (recombinant human IL-1β [22]): 0.291 nM |
